The chains are these.
B1: Autophagy-related protein 13 (Saccharomyces cerevisiae), Q06628 (parent)
chain: MVAEEDIEKQVLQLIDSFFLKTTLLICSTESSRYQSSTENIFLFDDTWFEDHSELVSELPEIISKWSHYDGRKELPPLVVETYLDLRQLNSSHLVRLKDHEGHLWNVCKGTKKQEIVMERWLIELDNSSPTFKSYSEDETDVNELSKQLVLLFRYLLTLIQLLPTTELYQLLIKSYNGPQNEGSSNPITSTGPLVSIRTCVLDGSKPILSKGRIGLSKPIINTYSNALNESNLPAHLDQKKITPVWTKFGLLRVSVSYRRDWKFEINNTNDELFSARHASVSHNSQGPQNQPEQEGQSDQDIGKRQPQFQQQQQPQQQQQQQQQQQRQHQVQTQQQRQIPDRRSLSLSPCTRANSFEPQSWQKKVYPISRPVQPFKVGSIGSQSASRNPSNSSFFNQPPVHRPSMSSNYGPQMNIEGTSVGSTSKYSSSFGNIRRHSSVKTTENAEKVSKAVKSPLQPQESQEDLMDFVKLLEEKPDLTIKKTSGNNPPNINISDSLIRYQNLKPSNDLLSEDLSVSLSMDPNHTYHRGRSDSHSPLPSISPSMHYGSLNSRMSQGANASHLIARGGGNSSTSALNSRRNSLDKSSNKQGMSGLPPIFGGESTSYHHDNKIQKYNQLGVEEDDDDENDRLLNQMGNSATKFKSSISPRSIDSISSSFIKSRIPIRQPYHYSQPTTAPFQAQAKFHKPANKLIDNGNRSNSNNNNHNGNDAVGVMHNDEDDQDDDLVFFMSDMNLSKEG
partner: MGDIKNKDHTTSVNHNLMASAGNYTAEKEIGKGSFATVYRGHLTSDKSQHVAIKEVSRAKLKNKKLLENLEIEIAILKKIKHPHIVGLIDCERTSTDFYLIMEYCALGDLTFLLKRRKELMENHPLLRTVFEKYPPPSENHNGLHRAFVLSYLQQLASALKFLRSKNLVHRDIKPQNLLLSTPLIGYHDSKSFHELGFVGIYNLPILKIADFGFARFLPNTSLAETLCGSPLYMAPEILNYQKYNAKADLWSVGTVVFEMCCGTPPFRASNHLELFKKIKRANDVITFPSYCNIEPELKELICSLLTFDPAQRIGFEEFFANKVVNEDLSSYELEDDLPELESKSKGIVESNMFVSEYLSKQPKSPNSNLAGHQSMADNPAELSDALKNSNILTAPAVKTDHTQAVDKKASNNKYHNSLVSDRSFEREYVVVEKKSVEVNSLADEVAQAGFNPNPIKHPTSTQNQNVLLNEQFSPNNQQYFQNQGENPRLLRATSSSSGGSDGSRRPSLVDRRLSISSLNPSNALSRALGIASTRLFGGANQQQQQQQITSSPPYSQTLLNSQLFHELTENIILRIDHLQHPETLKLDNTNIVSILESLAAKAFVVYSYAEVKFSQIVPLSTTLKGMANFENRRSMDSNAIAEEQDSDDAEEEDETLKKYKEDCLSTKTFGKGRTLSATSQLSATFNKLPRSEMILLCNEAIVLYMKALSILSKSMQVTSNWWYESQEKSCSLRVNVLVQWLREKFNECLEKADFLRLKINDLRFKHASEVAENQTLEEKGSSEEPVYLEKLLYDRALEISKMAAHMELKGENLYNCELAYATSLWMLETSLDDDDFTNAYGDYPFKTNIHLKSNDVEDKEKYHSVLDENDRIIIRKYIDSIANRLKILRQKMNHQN

The first experiment covers variants of B1. To be noted: with atg1_yeast ATG1, P53104.
As for F468A, the “effect of a mutation on the interaction” value is “disrupting interaction”.
In the case of V469A, the “effect of a mutation on the interaction” value is on record as “disrupting interaction”.

A further experiment covers variants of B1. To be noted: with atg1_yeast ATG1, P53104. This is another data set of the same source.
In the case of F468A, the “effect of a mutation on the interaction” value is “decreasing interaction”.
